Reference: article PMC13078783, “Kinesin-1 conformational dynamics are controlled by a cargo-sensitive TPR switch” (eLife, 2026)
No end group written: not given here.

Columns and labels:
KLC1 TPR domain = target: T1, KLC1 TPR domain; assay: fluorescence polarisation; TAMRA-conjugated peptide at 150 nM, increasing KLC1/2 TPR protein (typically 0–25 μM); 25 mM HEPES pH 7.4, 5 mM β-mercaptoethanol, 150 mM NaCl; room temperature; one-site specific binding model; conditions: both partners purified
T1 construct: also called isolated TPR domains; KLC-1 TPR protein; source: E. coli BL21(DE3), purified (His-Trap, SEC)

KLC2 TPR domain = target: T2, KLC2 TPR domain; assay: as above; conditions: both partners purified
T2 construct: kinesin light chain 2 (KLC2), TPR domain, residues A196-K480, in pET28His-Thrombin; source: E. coli BL21(DE3), purified (His-Trap, SEC)

[1] = target: the molecule itself; assay: AUC; sedimentation equilibrium, 20 °C, PBS, 100 μM total peptide, 44–60 krpm, single ideal species model

ENEALKDEVKELLQALEELAVNYDQLSQ-NH2 (also: TAMRA-conjugated, position not given here) [Eng-TDS] was tested, and the Kd (KLC1 TPR domain) was roughly 25 µM, the Kd (KLC2 TPR domain) was 2.7 µM and the “stoichiometry N” value [1] was 2.
